{"source": "patent US10196447B2", "about": "“Anti-vascular endothelial growth factor receptor 2 (VEGFR2) antibody and methods of use thereof for detecting VEGFR2 and for inhibiting tumor growth, tumor angiogenesis and/or inducing cancer cell cytotoxicity” (Academia Sinica, priority 2015, dated 2019)", "molecules": {"B1": {"name": "R2PC12: phage-displayed human scFv clone binding VEGFR2; VH CDR1-3 SEQ ID NO: 6-8, VL CDR1/CDR3 SEQ ID NO: 9, 10 (antibody, V domains shown)", "VH": "QVNLRESGGGLVKPGGSLRLSCAASGFTFGSYTMNWVRQAPGKGLEWVASITSGSSYIFYTDSVKGRFTISRDNSRSSLFLQMNSLRAEDTAIYYCARGSASAFDIWGQGTMVTVSS", "VL": "DIQMTQSPSSLSASVGDRVTITCKASDDIINYLNWYQQKPGEAPKLLIYDASILETGVPSRFSGSGSGTDFTFTISSLQPEDIATYYCQQYDILPLTFGGGTKLEIK"}, "B2": {"name": "R2S12AF: affinity-matured scFv clone of R2S12; VH SEQ ID NO: 76, VL SEQ ID NO: 78, VL-CDR3 QQLDDIPIT (antibody, V domains shown)", "VH": "B1 VH", "VL": "B1 VL with Y91L, I93D, L94I, L96I", "modifications": "scFv linker; VH region of R2S12 or R2S12-AF; VL region of R2S12AF"}}, "key": {"VEGFR2 signaling pathway": {"tested_on": "VEGFR2 signaling pathway", "assay": "Western blot of VEGF-A-induced phosphorylation in HUVECs", "assay_type": "cell-based, human", "details": "100 nM antibody", "description": "Western blots were pertbrmed using standard protocols, as previously described. The primary antibodies were purchased from Cell Signaling Technology and used at a 1,000-fold dilution for protein detection; the antibodies used are as follows: anti-VEGFR2 (clone 55B11), anti-phospho-VEGFR2 (Tyr1175; clone 19A10), anti-FAK, anti-phospho-FAK (Tyr397; cloneD20B1), anti-p42/44 MAPK, anti-phospho-p42/44 MAPK (Thr202/Tyr204; cloneD13.14.4E), anti-Akt, and anti-phospho-Akt (Ser473)."}, "[1]": {"tested_on": "HL-60 leukemia xenografts", "assay": "HL-60 leukemia xenograft model", "assay_type": "in vivo, NSG mice", "protocol": "For systemic leukemia engraftment studies, NOD/SCID/IL2Rγ−/− (NSG) mice were obtained from the Animal Center of the Institute of Cellular and Organismic Biology, Academia Sinica. Six-week old females were intravenously injected with 5×10^6 HL-60 cells through the tail vein. Animals were monitored daily for general health, and body weights were measured twice weekly. […] Mice were observed daily for signs of toxicity, and the survival times were recorded. At the end-point of treatment, the visceral organs of each mouse were removed and fixed for further histological examination.\nTumors and indicated organs were dissected from mice and fixed in 4% paraformaldehyde overnight. Fixation and processing of specimens were performed in accordance with standard procedures. The specimens were embedded in paraffin and cut into […] sections. Rehydrated paraffin-embedded tissue sections were stained with Mayer's hematoxylin solution (Wako) for 5 minutes and washed with water for 1-2 minutes. The slides were then stained with eosin solution (Wako) for 10 minutes. Tissues were visualized with Tissue Gnostics microscopes."}, "murine VEGFR2 protein": {"molecular_target": "murine VEGFR2 protein (Mus musculus, UniProt P35918, DEL223-227)", "sequence (P35918 with tags, fused parts or gaps DEL223-227)": "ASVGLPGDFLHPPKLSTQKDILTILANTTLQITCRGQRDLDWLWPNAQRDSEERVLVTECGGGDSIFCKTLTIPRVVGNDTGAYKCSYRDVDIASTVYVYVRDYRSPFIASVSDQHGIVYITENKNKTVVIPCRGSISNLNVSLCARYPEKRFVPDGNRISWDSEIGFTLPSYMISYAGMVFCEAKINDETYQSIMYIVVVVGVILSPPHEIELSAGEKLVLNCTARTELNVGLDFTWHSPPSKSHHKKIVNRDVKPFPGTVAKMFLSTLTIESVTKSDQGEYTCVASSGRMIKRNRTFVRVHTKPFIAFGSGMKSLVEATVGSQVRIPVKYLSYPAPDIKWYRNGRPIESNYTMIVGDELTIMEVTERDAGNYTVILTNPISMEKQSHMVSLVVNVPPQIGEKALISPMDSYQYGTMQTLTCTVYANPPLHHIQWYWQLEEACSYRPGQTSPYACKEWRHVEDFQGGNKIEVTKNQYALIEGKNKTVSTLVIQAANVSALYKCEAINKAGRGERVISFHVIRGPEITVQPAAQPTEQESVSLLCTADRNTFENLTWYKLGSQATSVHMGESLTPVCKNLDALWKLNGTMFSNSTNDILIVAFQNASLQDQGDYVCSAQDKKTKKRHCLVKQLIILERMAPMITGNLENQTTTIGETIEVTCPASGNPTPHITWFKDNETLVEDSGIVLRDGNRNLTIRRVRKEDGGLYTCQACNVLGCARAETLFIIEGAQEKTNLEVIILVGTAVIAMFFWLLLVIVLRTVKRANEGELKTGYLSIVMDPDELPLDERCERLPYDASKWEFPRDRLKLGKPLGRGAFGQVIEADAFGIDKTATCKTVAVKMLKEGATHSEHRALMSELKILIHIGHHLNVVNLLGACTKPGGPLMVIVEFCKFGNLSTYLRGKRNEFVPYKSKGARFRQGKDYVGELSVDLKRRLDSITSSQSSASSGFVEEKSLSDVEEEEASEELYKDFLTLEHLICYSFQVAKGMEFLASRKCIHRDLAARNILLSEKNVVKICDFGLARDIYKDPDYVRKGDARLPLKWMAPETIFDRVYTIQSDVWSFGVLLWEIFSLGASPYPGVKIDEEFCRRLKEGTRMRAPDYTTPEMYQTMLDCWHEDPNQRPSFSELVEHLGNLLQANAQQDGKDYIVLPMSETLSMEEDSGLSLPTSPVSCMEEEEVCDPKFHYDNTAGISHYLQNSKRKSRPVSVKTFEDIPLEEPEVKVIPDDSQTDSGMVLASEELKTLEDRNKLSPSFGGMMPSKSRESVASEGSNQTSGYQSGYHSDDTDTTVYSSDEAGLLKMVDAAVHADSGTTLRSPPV", "assay": "Cross-reactivity with murine VEGFR2", "assay_type": "binding"}, "PC-3 xenografts": {"tested_on": "PC-3 xenografts", "assay": "PC-3 human prostate cancer xenograft model", "assay_type": "in vivo, NOD/SCID mice", "protocol": "Procedures involving animals and their care were conducted according to the guidelines of the Academia Sinica Institutional Animal Care and Utilization Committee in compliance with national and international laws and policies. Non-obese diabetic-severe combined immunodeficiency (NOD/SCID) mice were purchased from the National Laboratory Animal Center (Taiwan). The human prostate cancer xenograft tumor model was developed by subcutaneously injecting 2×10^6 PC-3 cells into the dorsal flank of a six-week old male mouse. Animals were monitored daily for general health, and body weights were measured twice weekly. Tumor size was measured with slide calipers and calculated as length×width^2×0.52. […] An antibody dose of 20 mg/kg was injected twice a week for four weeks. For combination therapy, docetaxel (ScinoPharm Taiwan) was also intravenously administered at a dose of 5 mg/kg once a week for three weeks. At the end of the experiment, tumor tissue and visceral organs were removed and fixed for histological analysis.\nFor tumor blood vessel studies, samples were fixed in OCT. Frozen blocks were cut into 50 μm sections, and frozen tumor tissue sections were fixed with 1% paraformaldehyde, permeabilized with 0.1% TRITON™-X 100, blocked with normal horse serum (Vector), and then incubated for 1 hour at room temperature (RT) with a 1:100 dilution of the primary antibody (rat anti-mouse CD31 (PECAM-1); BD Bioscience). Subsequently, the tissue sections were incubated with Alexa 549-conjugated goat anti-rat antibody (Invitrogen) at room temperature for 1 hour. Nuclei were stained with DAPI, and sections were then mounted with fluorescent mounting solution. Immunofluorescent images were acquired using a Zeiss Axiovert 200M microscope. Positive areas of CD31 endothelial cells were quantified by pixel area counting and normalized with DAPI staining using ImageJ software under low power magnification.\nThe frozen tumor tissue sections were fixed with 1% paratbrmaldehyde and permeabilized with 0.1% TRITON™-X 100, before being incubated with terminal deoxynucleotidyltransferase-mediated dUTP nick end labeling reaction mixture (Roche Diagnostics) at 37° C. for 1 hour. After washing three times with PBS, the slides were incubated with FITC-anti-DIG antibody (1:2000) and DAPI (1:500). Slides were mounted with mounting solution and visualized under a fluorescent microscope. Slides were independently examined by three individuals. Areas with TUNEL-positive cells were quantified by pixel area counting, and normalized to DAPI staining using ImageJ software."}, "Met-Fc": {"tested_on": "Met-Fc", "assay": "Phage clone ELISA on control protein", "assay_type": "binding", "protocol": "(§1) The selected phages were further examined by ELISA screening. The 96-well plates were coated with 1 μg/ml of VEGFR2-Fc, Met-Fc (R&D), or BSA (Sigma) protein in 0.1 M sodium bicarbonate overnight at 4° C. After blocking with 1% BSA in PBS (w/v) for 2 hr at room temperature, 70-randomly selected phage clones were added to the plates at a 1:2 dilution in 1% BSA, and incubated for 1 hr at room temperature. Following washes with PBST, the plates were incubated with a 1:2000 dilution of horseradish peroxidase (HRP)-conjugated mouse anti-M13 phage antibody (GE) for 1 hr. After washing with PBST, the colorimetric reaction was developed with the peroxidase substrate ortho-phenylenediamine (OPD; Sigma) plus H2O2 for 15 min, and then terminated by the addition of 3 N HCl. The absorbance at 490 nm was determined using a microplate reader (SpectraMax, Molecular Devices). Plasmid DNA of positive clones were isolated and sequenced using the pCANTAB5 sequencing primer set."}, "VEGFR2-Fc [2]": {"molecular_target": "T1, VEGFR2-Fc (Homo sapiens, UniProt P35968)", "T1 construct": "purchased R&D Systems", "T1 sequence (P35968 with tags, fused parts or gaps limits assumed)": "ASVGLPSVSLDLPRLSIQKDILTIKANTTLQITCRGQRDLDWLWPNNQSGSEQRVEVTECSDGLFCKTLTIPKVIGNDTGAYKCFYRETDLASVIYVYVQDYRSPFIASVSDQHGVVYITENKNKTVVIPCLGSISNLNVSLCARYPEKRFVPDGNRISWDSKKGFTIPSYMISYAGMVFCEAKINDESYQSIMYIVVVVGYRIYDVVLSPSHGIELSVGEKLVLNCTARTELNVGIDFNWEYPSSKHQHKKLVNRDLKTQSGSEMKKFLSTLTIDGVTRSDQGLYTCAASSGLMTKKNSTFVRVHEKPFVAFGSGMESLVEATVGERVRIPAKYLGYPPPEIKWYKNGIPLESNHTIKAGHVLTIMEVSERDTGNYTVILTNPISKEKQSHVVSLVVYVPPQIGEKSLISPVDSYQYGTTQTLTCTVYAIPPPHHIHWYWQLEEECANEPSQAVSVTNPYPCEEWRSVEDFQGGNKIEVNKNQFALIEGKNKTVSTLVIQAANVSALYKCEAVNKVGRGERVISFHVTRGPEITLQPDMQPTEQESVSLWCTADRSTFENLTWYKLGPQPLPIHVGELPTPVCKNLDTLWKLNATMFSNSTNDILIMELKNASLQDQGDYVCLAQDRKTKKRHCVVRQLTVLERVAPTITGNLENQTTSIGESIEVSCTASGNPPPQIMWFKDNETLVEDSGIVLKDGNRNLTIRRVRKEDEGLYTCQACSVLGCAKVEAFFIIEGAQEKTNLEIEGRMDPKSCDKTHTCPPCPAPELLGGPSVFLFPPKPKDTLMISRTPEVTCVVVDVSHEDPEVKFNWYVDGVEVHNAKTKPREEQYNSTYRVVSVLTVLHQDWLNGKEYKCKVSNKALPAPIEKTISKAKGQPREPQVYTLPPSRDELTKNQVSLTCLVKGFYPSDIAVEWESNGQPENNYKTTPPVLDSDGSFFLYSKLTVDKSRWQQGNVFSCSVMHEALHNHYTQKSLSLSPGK", "assay": "Screening of anti-VEGFR2 phage clones by ELISA", "assay_type": "binding", "details": "1×10^9 cfu phage titer", "protocol": "as §1"}, "[3]": {"tested_on": "VEGFR2 on the cell surface of HUVEC", "assay": "Flow cytometry binding to HUVECs", "assay_type": "cell-based, human", "details": "FACS; 1×10^10 cfu", "protocol": "About 1×10^4 HUVEC were incubated with the selected anti-VEGFR2 phage clones at 4° C. for 1 hour in FACS buffer (PBS containing 1% fetal bovine serum). After the cells were washed with FACS buffer, they were first incubated with mouse anti-M13 phage Ab for 1 hr at 4° C., and then with R-phycoerythrin-conjugated goat anti-mouse IgG (Jackson Immuno Research) for 30 min at 4° C. Flow cytometry was performed with a FACSCantoII (BD), and emission fluorescence intensity was measured with FACS Diva software (BD) to quantitatively compare binding affinities."}, "VEGFR2-Fc [4]": {"molecular_target": "T1, VEGFR2-Fc", "assay": "ELISA binding of R2S12 and R2S12-AF scFv to VEGFR2-Fc (affinity maturation)", "protocol": "(A) Affinity maturation for R2S12. […] Subsequently, the beads were washed four times with PBS containing 1% TWEEN™ 20. After four rounds of biopanning, the recovery rate of the phages was increased by 929-fold over that of the first round. (B) Comparison of the binding activity of the indicated concentrations of R2S12 and R2S12-AF scFv to VEGFR2-Fc protein, as assayed by ELISA. Error bar, SE.\nAffinity maturation was performed as previously described. […] This synthetic library was used to perform biopanning for VEGFR2-Fc-immobilized DYNABEADS®. After four to five rounds of stringent in vitro biopanning, positive clones were screened and identified by ELISA."}, "[5]": {"details": "20 mg/kg i.v. twice weekly from day 3"}}, "note": "Where a chain is given by its changes, count along the chain named.", "data": [{"molecule": "IMC-1121B: FDA-approved anti-VEGFR2 human antibody (Ramucirumab), expressed by the applicant as human IgG1 [reference compound]", "values": [{"measurement": "FAK phosphorylation", "setting": "VEGFR2 signaling pathway", "result": "only marginally reduced"}, {"measurement": "median survival", "setting": "[1]; [5]", "result": 43, "unit": "days"}, {"measurement": "survival time", "setting": "[1]; [5]", "result": 56, "unit": "days"}, {"measurement": "lymph nodes with leukemia infiltration", "setting": "[1]; n=9 per group", "result": "five of nine"}, {"measurement": "cross-reaction / binding to murine VEGFR2", "setting": "murine VEGFR2 protein", "result": "not"}, {"measurement": "tumor growth reduction", "setting": "PC-3 xenografts; by day 38, antibody 20 mg/kg i.v. twice a week, docetaxel 5 mg/kg i.v. once a week", "result": 45, "unit": "%"}, {"measurement": "changes in body weight during the treatment period", "setting": "PC-3 xenografts; compared to the NHIgG group or docetaxel alone", "result": "no significant changes"}, {"measurement": "docetaxel-induced toxicity (body weight as surrogate)", "setting": "PC-3 xenografts; in combination with docetaxel", "result": "do not enhance"}]}, {"molecule": "B1", "values": [{"measurement": "binding of phage clones to c-Met-Fc control protein", "setting": "Met-Fc", "result": "not"}, {"measurement": "binding of phage clones to VEGFR2-Fc", "setting": "VEGFR2-Fc [2]", "result": "bind highly"}, {"measurement": "binding of phage clones to VEGFR2 on HUVEC cell surface", "setting": "[3]", "result": "greatest reactivity"}]}, {"molecule": "B2", "values": [{"measurement": "binding activity to VEGFR2-Fc compared with parental clone R2S12", "setting": "VEGFR2-Fc [4]", "result": "superior binding activity"}]}]}
